Reference: doi:10.1101/2025.02.05.636725, “DHRS7 Integrates NADP^+/NADPH Redox Sensing with Inflammatory Lipid Signalling via the Oxoeicosanoid Pathway” (bioRxiv, 2025)

B1: dr Dhrs7 (Danio rerio) (protein)
chain: MDICWLCVGLAGTAVYLLVQFIRFIFADADLTLLWAARFGKTPESTFRGKVVWITGASSGIGEELSLQLAAIGARLVLSARRENELERVKRLCLERSSLKAEDILVLPLDLMDRASHPEKTTAALEHFGEIDVLINNGGRSQRALCVDADVDVYQALMELNYLGTVSITKQVLPHMIQRGTGIIATVSSVAGFVGVPLATGYAASKHALQGFFNSLRTELSDCPNILISNICPGPVISSIVQNAFTEELGKPVATAGDQTHKMSTERCVHLTLVGLANRVKEMWIAEQPFLLFCYVWQYTPTLAWYLTNVLGKKRVQNFKAGVDADAAYFSKPKAKTS
notes: Dhrs7-eGFP fusion (pSBtet-eGFP vector, doxycycline-induced) in microsomes of human HEK293T DHRS7-knockout cells
B2: hs DHRS7 (Homo sapiens) (protein)
chain: MNWELLLWLLVLCALLLLLVQLLRFLRADGDLTLLWAEWQGRRPEWELTDMVVWVTGASSGIGEELAYQLSKLGVSLVLSARRVHELERVKRRCLENGNLKEKDILVLPLDLTDTGSHEAATKAVLQEFGRIDILVNNGGMSQRSLCMDTSLDVYRKLIELNYLGTVSLTKCVLPHMIERKQGKIVTVNSILGIISVPLSIGYCASKHALRGFFNGLRTELATYPGIIVSNICPGPVQSNIVENSLAGEVTKTIGNNGDQSHKMTTSRCVRLMLISMANDLKEVWISEQPFLLVTYLWQYMPTWAWWITNKMGKKRIENFKSGVDADSSYFKIFKTKHD
notes: DHRS7-eGFP fusion (pSBtet-eGFP vector, doxycycline-induced) in microsomes of HEK293T DHRS7-knockout cells

Experiments:
[1] = substrate: NC(=O)c1ccc[n+]([C@@H]2O[C@H](COP(=O)(O)OP(=O)(O)OC[C@H]3O[C@@H](n4cnc5c(N)ncnc54)[C@H](OP(=O)(O)O)[C@@H]3O)[C@@H](O)[C@H]2O)c1; experiment: NADPH fluorescence, plate reader, Michaelis-Menten fit of initial velocities; assay type: cell-based, Danio rerio; details: microsomes of overexpressing HEK293T DHRS7-KO cells, 5(S)-HETE in excess, pH 7.5, 37 °C, apparent (pseudo-first order), eGFP fusion, varied: cofactor
[2] = substrate: CCCCC/C=C\C/C=C\C/C=C\C=C\[C@@H](O)CCCC(=O)O; experiment: cells, lysate or membranes; details: microsomes of overexpressing HEK293T DHRS7-KO cells, NADP+ in excess, pH 7.5, 37 °C, apparent (pseudo-first order), eGFP fusion
[3] = substrate: NC(=O)c1ccc[n+]([C@@H]2O[C@H](COP(=O)(O)OP(=O)(O)OC[C@H]3O[C@@H](n4cnc5c(N)ncnc54)[C@H](OP(=O)(O)O)[C@@H]3O)[C@@H](O)[C@H]2O)c1; experiment: NADPH fluorescence, plate reader, Michaelis-Menten fit of initial velocities; assay type: cell-based, Homo sapiens; details: microsomes of overexpressing HEK293T DHRS7-KO cells, 5(S)-HETE in excess, pH 7.5, 37 °C, apparent (pseudo-first order), eGFP fusion, varied: cofactor

Protein | Km [1] | Km [2] | Km [3]
B1 | 0.63 (95% CI: [0.24, 1.03]) μM | 1.4 (95% CI: [1.1, 1.7]) μM | –
B2 | – | 0.78 (95% CI: [0.43, 1.13]) μM | 0.62 (95% CI: [0.39, 0.97]) μM
